Source: the RNAGym collection of RNA variant scans (doi:10.7554/elife.80360)

B1: HDV Ribozyme (parent)
chain: GGCCGGCAUGGUCCCAGCCUCCUCGCUGGCGCCGGCUGGGCAACAUUCCGAGGGGACCGUCCCCUCGGUAAUGGCGAAUGGGACCCA

Variants of: B1
Assay: self-cleavage, relative activity (ratio to wild type); higher = more cleavage; co-transcriptional

Variant | self-cleavage
GGCCGGCAUGGUCCCAGCCUCCUCGCUGGCGCCGGCGGGGCAACAUUCCGAGGGGACCGUCCCCUCGAUAAUGGCGAAUGGGACCCA | 0.246
GGCCGGCUUGGUCCCAGCCUCCUCGCUGGCGCCGGCUGGGCAACAUUCCGAGGGGACCAUCCCCUCGGUAAUGGCGAAUGGGACCCA | 0.79
GGCUGGCAUGGUCCCAGCCUCCUCGCUGGCGCCGGCUGGGCAACAUUCGGAGGGGACCGUCCCCUCGGUAAUGGCGAAUGGGACCCA | 0.604
GGCCGGCAUGGUCCCAGCCUCCUCGCUGGCGCCGGCUGGGCAACAUUCCGAGGGUACCGUCCCCUCGGUAAUGGCGAACGGGACCCA | 0.395
GGCCGGCAUGGUCCCAGCCUCCUCGCUGGCGCCGGCUGCGCAACAUUCCGAGGGGUCCGUCCCCUCGGUAAUGGCGAAUGGGACCCA | 0.13
GGCCGUCAUGGUCCCAGCCUCCUCGCUGGCGCCGGCUGGGCAACAUUCCGAGGGGACCGUCCCCUCGGUAAUAGCGAAUGGGACCCA | 0.113
GGCCGGCGUGGUCCCAGCCUCCUCGCUGGCGCCGGCUGGGCAACAUUCCGAGAGGACCGUCCCCUCGGUAAUGGCGAAUGGGACCCA | 1.04
GGCCGGCAUGGUCCCAGCCUCCUCGCUGGCGCCGGCUGGGCAACAUUCCGAGGGGACCGUCCCCUCGGUAAUGGCGAAUAGGACCCU | 0.441
GGCCGGCAUGGUCCCAGCCUCCUCGCUGGAGCCGGCUGGGCAACAUUCCGAGGGGACCGUCCCCUCGGUAAUGGCGAAUGGGACACA | 0.295
GGCCGGCAUGGUCACAGCCUCCUCGCUGGCGCCGGCUGAGCAACAUUCCGAGGGGACCGUCCCCUCGGUAAUGGCGAAUGGGACCCA | 0.177
GGCCGGCAUGGUCCCAGCCUCCUCGCUGGCGCCGGCUGGGCAACAUUCCGAGGGGACUGUCUCCUCGGUAAUGGCGAAUGGGACCCA | 0.867
GGCCGGCAUGGUCCCAGCGUCCUCGCUGGCCCCGGCUGGGCAACAUUCCGAGGGGACCGUCCCCUCGGUAAUGGCGAAUGGGACCCA | 0.104
GGCCGGCAUGGUGCCAGCCUCCUCGCUGGCGCCGGCUGGGCAACAUUCCGAGGGGACCGUCCCCUCGGUAAUGGCGAAUGGGACCAA | 0.0811
GGCCGGCAUGGUCCCAGCCUCCUCGCUGGCGCCGGCUGGGCAACAUUCCGAGGGGACCGUCCGCUCGGUAAUGGCGAAUGGGACCCC | 0.737
GGCCAGCAUGGUCCCAGCCUCCUCGCUGGCGCCGGCUGGGCAACAUUCCCAGGGGACCGUCCCCUCGGUAAUGGCGAAUGGGACCCA | 0.225
GGCCGGCAUGGUCCCAGCCUCCUCGCUGGCGCCGGCUGGGCAACAUUCCGAGGGGACCGUCACCUCGGUAAUGGCGAGUGGGACCCA | 0.78

Variant | self-cleavage
GGCCGGCAUGGUCCCAGCCUCCCCGCUGGCGCCGGCUGGGCAACAUUCCGAGGGGACCGUCCCCUCGGUAAUGGCGAAAGGGACCCA | 0.554
GGCCGGCAUGGUGCCAGCCACCUCGCUGGCGCCGGCUGGGCAACAUUCCGAGGGGACCGUCCCCUCGGUAAUGGCGAAUGGGACCCA | 0
GGCCGGCAUGGUCCCAGCCUCCUCGCUGGCGCCGGCUGGGCAACAUUCCGAGGGGACCGUCCCCUCGGUAAUGGCGAAUGGCCCCCA | 0.284
GGCCGGCAUGGUCCCAGCCUCCUCGCUGGCCCCGGCUGGGCAACAUUCCGAGGGGACCGUCCCCUCGGUAAUGGCGAAUGGGUCCCA | 0.173
GGCCGGCAUGGUCCCAGCCCCCUCGCUGGCGCCGGCUGGGCAACAUUCCGAGGGGGCCGUCCCCUCGGUAAUGGCGAAUGGGACCCA | 0.101
GGCCGGCAUGGUCCCAGCCUCCUCGCUGGCUCCGGCUGGGCAACAUUCCGAGGGGACCGUCCCCUCGGUAAUGGCGAAUGGGAUCCA | 0.363
GGCCGGCAUGGUCCCAGCCUCCUCGCUGGCGCCGGCUGGGCAACAUUCCGAGGGGACCGUCCCCGCGGUAAUGGCGAAUGGGAUCCA | 0.704
GGCCGGCAUGGUCCCAGCCUCCACGCUGGCGCCGGCUGGGCAACAUUCCGGGGGGACCGUCCCCUCGGUAAUGGCGAAUGGGACCCA | 1.01
GGCCGGCAUGGUCCCGGCCUCCUCGCUGGCGCCGGCUAGGCAACAUUCCGAGGGGACCGUCCCCUCGGUAAUGGCGAAUGGGACCCA | 0.213
GGCCGGCAUGGUCCCAGCCUCCUCGCUGGCGCCGGCUGGGCAACAUUUCGAGGGGACCGUCCCCUCGGUAAUAGCGAAUGGGACCCA | 0.526
GGCCGGCAUGGUCCCAGCCUCCUCGGUGGCGCCGGCUGGGCAACAUUCCGAGGGGACCGUCCCCUCGGUAGUGGCGAAUGGGACCCA | 0.475
GGCCGGCAUGGUCCCAGCCUCCACGCUGGCGCCGGCGGGGCAACAUUCCGAGGGGACCGUCCCCUCGGUAAUGGCGAAUGGGACCCA | 0.415
GGCCGGCAUGGUCCCAGCCUCCUCGCUGGCGCCGGCUGGGCAACAUUCCGAGAGGACCGUCUCCUCGGUAAUGGCGAAUGGGACCCA | 0.926
GGCCGGCAUGGUCCUAGCCUCCUCGCUGGCGCCGGCUGGGCAACAUUCAGAGGGGACCGUCCCCUCGGUAAUGGCGAAUGGGACCCA | 0.623
GGCCGGCAUGGUCCCAGCCUCCUCGCUGGCGCCGGCUGGGCAACAUUCCGAGGGGACCGUCCCCUCGGUAUUGGCGAAUGGGAUCCA | 0.475
GGCCGGGAGGGUCCCAGCCUCCUCGCUGGCGCCGGCUGGGCAACAUUCCGAGGGGACCGUCCCCUCGGUAAUGGCGAAUGGGACCCA | 0.831
